The text below walks through data of US20170119874A1.

The experiment has as its target cellular receptor used by the virus to infect target cells (ARPE 19 epithelial cells). Put plainly: cell-based or functional assay.

With “soluble HCMV pentameric complex (gH, gL, pUL128, pUL130, pUL131), purified, tag-free, produced in CHO-K1SV cells (from UniProt P12824 26-713; Q68672 32-278; P16837 23-171; F5HCP3 28-213; F5HET4 19-129)”, the IC50, inhibition of HCMV infection of ARPE 19 epithelial cells (complex pre-incubated with the target cells) came out at 1.9 nM.
